In publication PMC7092949 (Biochemical and Biophysical Research Communications, 2004):

Biological target: T1, HR-N (SN50) peptide of the SARS-CoV spike protein (SARS-CoV, UniProt P59594 903-952)
T1 peptide: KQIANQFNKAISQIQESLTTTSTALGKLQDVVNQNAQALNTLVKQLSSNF
Assay: circular dichroism

## LGDISGINASVVNIQKEIDRLNEVAKNLNESLIDLQELGK [HR-C (SC40) peptide of the SARS-CoV spike protein]
  binding result: binds
